The text below walks through data of paper doi:10.1101/736868 (bioRxiv, 2019).

The series concerns the molecule itself. The series can be described thus: SEC-MALS; SEC-MALLS, S-200 Superdex 10/300, 0.5 ml/min, 1x PBS (legend: TBS), protein at 33 µM; monomer and dimer.

B1: purified recombinant mouse CAVII protein (mCAVII) (enzyme, UniProt Q9ERQ8 1-264, looked up)
chain: MTGHHCWGYGQDDGPSNWHKLYPIAQGDRQSPINIISSQAVYSPSLQPLELFYEACMSLSITNNGHSVQVDFNDSDDRTVVSGGPLEGPYRLKQLHFHWGKKRDMGSEHTVDGKSFPSELHLVHWNAKKYSTFGEAAAAPDGLAVVGVFLETGDEHPSMNRLTDALYMVRFKDTKAQFSCFNPKCLLPTSRHYWTYPGSLTTPPLSESVTWIVLREPIRISERQMEKFRSLLFTSEDDERIHMVDNFRPPQPLKGRVVKASFQA
notes: carbonic anhydrase VII, mouse; theoretical size of the monomer printed as 30.5 kDa; also called carbonic anhydrase VII; source: CHOEBNALT85 cell line, produced as a secreted protein, purified
The term stoichiometry N denotes a count of units in the complex or per binding partner. Take B1: the “stoichiometry N” value came to 2.
